This passage reports Kd results from publication PMC3485628.

In test [1] the target is recombinant human perlecan domain 1 proteoglycan rhPln.247 (human) (UniProt P98160). Nature of the test: ELISA; rhPln.247 coated directly on polystyrene microtiter wells overnight at 4°C in PBS/N3 at about 1-2 ug/ml; rhBMP-2 or rhBMP-7 serially diluted; retained BMP detected with biotinylated anti-BMP antibodies; background without rhPln.247 subtracted; apparent Kd. On the technique in general: ELISA stands for enzyme-linked immunosorbent assay.

For test [2] the target is unchanged. The test is described as above. This is another data set of the same source.
The target in test [3] is a commercial source of HSPG. In words: ELISA; capture antibody CSI 001-71 (anti-Pln.D1) coated, then rhPln.247 (1 ug/ml) or HSPG, then dilutions of rhBMP-2; retained BMP detected with anti-BMP antibodies; background subtracted; apparent Kd.
For test [4], the target named is a commercial source of HSPG. Described as above. The source holds these as a separate data set.
Test [5] has as its target recombinant human perlecan domain 1 proteoglycan rhPln.247 (human) (UniProt P98160). Described as above.

Like-named read-outs stand apart in the source and are kept apart here.

Chain of recombinant human perlecan domain 1 proteoglycan rhPln.247 (human) (P98160 22-247): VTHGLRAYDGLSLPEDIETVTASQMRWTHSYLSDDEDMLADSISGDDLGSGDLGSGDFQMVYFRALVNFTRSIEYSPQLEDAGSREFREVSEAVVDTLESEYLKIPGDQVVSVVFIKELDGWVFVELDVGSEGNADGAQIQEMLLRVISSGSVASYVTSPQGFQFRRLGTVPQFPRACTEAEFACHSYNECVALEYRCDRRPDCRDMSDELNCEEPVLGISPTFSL
Chain of recombinant human bone morphogenetic protein-2 (P12643 283-396): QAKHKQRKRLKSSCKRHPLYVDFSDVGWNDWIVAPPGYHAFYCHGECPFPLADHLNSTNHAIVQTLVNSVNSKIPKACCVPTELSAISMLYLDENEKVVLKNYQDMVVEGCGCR

For the substance “recombinant human bone morphogenetic protein-2 (from UniProt P12643 283-396) (ligand)”, the Kd in test [1] was found to be 0.4 nM; in test [2] it was 0.573 nM; in test [3] it was 150 nM; in test [4], 0.15 nM; in test [5], 0.6 nM.
